Results published in patent US20210017289A1 (AbbVie / Abbott, published 2021).

Columns and labels:
293s-huOX40-muCRDII+III = target: T1, 293s-huOX40-muCRDII+III; experiment: flow cytometry on 293s transfectants, Hu3738 added at 2 µg/mL, Cy5 donkey anti-human IgG
T1 construct: cell-surface chimera, named on the sheet by its cell line; also called human OX40 chimera with murine CRDII and CRDIII replacing human CRDII and CRDIII
T1 receptor chain: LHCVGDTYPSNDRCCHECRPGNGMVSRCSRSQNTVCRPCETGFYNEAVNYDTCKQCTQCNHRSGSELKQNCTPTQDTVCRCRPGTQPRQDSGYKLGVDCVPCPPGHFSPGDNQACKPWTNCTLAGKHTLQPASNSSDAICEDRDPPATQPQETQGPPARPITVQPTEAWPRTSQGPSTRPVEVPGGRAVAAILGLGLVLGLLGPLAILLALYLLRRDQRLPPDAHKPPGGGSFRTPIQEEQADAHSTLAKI
Experimental: (§1) After plating cells, 50 μL of Hu3738 or isotype control antibody at 2 μg/mL were added to corresponding wells in duplicate for each cell line and allowed to incubate on ice for 30 minutes. Following incubation, 200 μL of Dulbecco's Phosphate Buffered Saline (DPBS) was added into each well and plates were spun down at 1000 rpm for three minutes. Supernatants from each well were removed and 50 μL of Cy5-Donkey anti-Human IgG (Jackson ImmunoResearch) secondary antibody was added at a 1:250 dilution, which was then incubated for 30 minutes on ice in the dark. Following the incubation period, 200 μL of DPBS was added prior to spinning down the plate at 1000 rpm for three minutes. Supernatants were removed and each well was re-suspended with 100 μL of DPBS+1% Formaldehyde. Samples were analyzed on the dual laser FACSCalibur flow cytometer (Becton Dickinson).

293s-huOX40-muCRDI = target: T2, 293s-huOX40-muCRDI; experiment: as above
T2 construct: cell-surface chimera, named on the sheet by its cell line; also called human OX40 chimera with murine CRDI replacing human CRDI
T2 receptor chain: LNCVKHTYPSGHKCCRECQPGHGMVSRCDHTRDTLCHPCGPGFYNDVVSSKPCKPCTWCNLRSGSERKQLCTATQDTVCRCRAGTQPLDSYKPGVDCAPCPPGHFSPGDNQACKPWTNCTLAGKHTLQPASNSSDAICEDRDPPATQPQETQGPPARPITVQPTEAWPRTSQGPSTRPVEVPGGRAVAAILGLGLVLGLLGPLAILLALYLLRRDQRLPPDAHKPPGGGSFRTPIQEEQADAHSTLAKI
Experimental: as §1

[1] = target: T3, human OX40 expressed on cells (human, UniProt P43489 29-277); experiment: flow cytometry on Jurkat NF-κB reporter cells expressing human OX40
T3 construct: also called cell-surface human OX40; Jurkat-NF-κB-huOX40
T3 sequence: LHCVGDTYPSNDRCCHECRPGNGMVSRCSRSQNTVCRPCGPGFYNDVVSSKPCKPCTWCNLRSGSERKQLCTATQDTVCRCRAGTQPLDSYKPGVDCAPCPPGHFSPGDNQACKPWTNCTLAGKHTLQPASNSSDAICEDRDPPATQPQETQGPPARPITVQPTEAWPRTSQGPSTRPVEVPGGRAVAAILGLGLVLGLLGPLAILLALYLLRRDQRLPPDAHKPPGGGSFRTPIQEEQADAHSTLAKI
Experimental: A Jurkat NF-κB reporter cell line expressing human OX40 protein was cultured in DMEM containing 10% FBS and penicillin/streptomycin (pen/strep). For the binding assay, each cell line was resuspended at 5 million cells per mL. 50 μL (250,000 cells)/well were transferred to each well of a 500 μL polypropylene 96-well plate (Nunc). A 2× stock of test anti-OX40 antibody or isotype control mAb was prepared in a separate dilution plate at 666, 333, 111, 37.03, 12.34, 4.11, 0.457, 0.152, 0.0508, 0.0169, 0.00564 nM in culture media. Each antibody (50 μL/well) was transferred into respective wells of the assay plate. Cells were incubated with the test anti-OX40 antibody or isotype control antibodies for 30 minutes at 4° C. and washed twice with 250 μL/well of PBS by centrifuging at 800 rpm for 3 minutes. Bound antibody was detected with Cy5-Donkey anti-human IgG (H+L) (Jackson ImmunoResearch) diluted to 2 μg/mL (50 μL/well) in PBS for 30 minutes at 4° C. Cells were washed once with 250 μL/well of PBS, resuspended in PBS containing 1% Formaldehyde and analyzed on a dual laser FACSCalibur (Becton Dickinson).

binding result (293s-huOX40-muCRDII+III): no binding (tested: 2 µg/mL)
binding result (293s-huOX40-muCRDI): binds
EC50 [1]: 0.075 µg/mL
B1: Hu3738 (antibody, V domains shown)
VH: EVQLVESGGGLVQPGGSLRLSCAASGFTFSRYGMSWVRQAPGKGLELVATINSNGGRTYYPDSVKGRFTISRDNAKNSLYLQMNSLRAEDTAVYYCAREGITTAYAMDYWGQGTTVTVSS
VL: DIVMTQSPDSLAVSLGERATINCKASQSVDYDGDSYMHWYQQKPGQPPKLLIYAASILESGVPDRFSGSGSGTDFTLTISSLQAEDVAVYYCQQSNEDPRTFGGGTKVEIKR
notes: Humanized antibody; also called exemplary anti-OX40 antibody Hu3738; Hu3738 VH.1b / Hu3738 VL.1
